# Experimental data from paper PMC9352680, “A comprehensive thermodynamic model for RNA binding by the Saccharomyces cerevisiae Pumilio protein PUF4”.
# Substitutions are numbered along the chain they refer to. Numbers in names are those of the source.
# T1: PUF4 RNA-binding domain (Saccharomyces cerevisiae, UniProt P25339 537-888)
# T1 sequence: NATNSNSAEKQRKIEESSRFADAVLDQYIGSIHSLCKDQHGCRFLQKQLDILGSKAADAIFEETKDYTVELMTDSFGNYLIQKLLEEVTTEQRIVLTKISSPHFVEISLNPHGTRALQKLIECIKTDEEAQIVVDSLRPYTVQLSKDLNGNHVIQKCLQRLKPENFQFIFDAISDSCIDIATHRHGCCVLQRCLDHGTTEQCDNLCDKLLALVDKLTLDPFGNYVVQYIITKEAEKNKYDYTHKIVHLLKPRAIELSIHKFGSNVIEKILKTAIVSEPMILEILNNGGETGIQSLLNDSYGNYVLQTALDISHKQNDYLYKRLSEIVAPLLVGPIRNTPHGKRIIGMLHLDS
# B1: Ie_S2_P3E.2_K3.1_C3.2_[+-2CC]_H3.1_A3.1_F3.1_T3.2 (ssRNA)
# RNA: UUUGAUUAAUAUGAUAUCGUUCUUUCUCCCUUGUAUAUAUAUUCUUUCUCGAUAUCAUAUUAAUCUUU
# B2: Ie_S2_P3E.2_K3.1_C3.2_H3.1_[+1TT]_A3.1_F3.1_T3.2 (ssRNA)
# RNA: B1 RNA with C29U, C30U
# B3: Ie_S2_P3E.2_K3.1_C3.2_H3.1_[+1T]_A3.1_F3.1_T3.2 (ssRNA)
# RNA: UUUGAUUAAUAUGAUAUCGUUCUUUCUCUUUGUAUAUAUAUUCUUUCUCGAUAUCAUAUUAAUCUUU
# B4: Ie_S2_P3E.2_K3.1_C3.2_[+-2CCC]_H3.1_A3.1_F3.1_T3.2 (ssRNA)
# RNA: UUUGAUUAAUAUGAUAUCGUUCUUUCUCCCCUUGUAUAUAUAUUCUUUCUCGAUAUCAUAUUAAUCUUU
# B5: Ie_S2_P3E.2_K3.1_C3.2_[+-2CTC]_H3.1_A3.1_F3.1_T3.2 (ssRNA)
# RNA: B4 RNA with C30U
# B6: Ie_S2_P3E.2_K3.1_C3.2_H3.1_[+1TTT]_A3.1_F3.1_T3.2 (ssRNA)
# RNA: B4 RNA with C29U, C30U, C31U
# B7: Ie_S2_P3E.2_K3.1_C3.2_[+-2TCC]_H3.1_A3.1_F3.1_T3.2 (ssRNA)
# RNA: B4 RNA with C29U
# B8: Ie_S2_P3E.2_K3.1_C3.2_[+-2CCT]_H3.1_A3.1_F3.1_T3.2 (ssRNA)
# RNA: B4 RNA with C31U
# B9: Ie_S2_P3E.2_K3.1_C3.2_H3.1_[+1CTT]_A3.1_F3.1_T3.2 (ssRNA)
# RNA: B4 RNA with C29U, C30U
# B10: Ie_S2_P3E.2_K3.1_C3.2_[+-2TCT]_H3.1_A3.1_F3.1_T3.2 (ssRNA)
# RNA: B4 RNA with C29U, C31U
# B11: Ib_S2_P3E.1_K3.1_C3.1_H3.1_[A4G]_A3.1_F3.1_[A8C]_T3.1 (ssRNA)
# RNA: UUUGAUUAAUAUGAUAUCGUUCUUUCUUGUGUAUCUUCUUUCUCGAUAUCAUAUUAAUCUUU
# B12: Ic_S2_P3E.1_K3.1_C3.1_H3.1_A3.1_[T5A]_F3.1_[T7C]_T3.1 (ssRNA)
# RNA: B11 RNA with G31A, U32A, U34C, C35A
# B13: Ia_S2_P3E.1_K3.1_C3.1_H3.1_[G2C]_A3.1_F3.1_T3.1 (ssRNA)
# RNA: B11 RNA with G29C, G31A, C35A
# B14: Ib_S2_P3E.1_K3.1_C3.1_H3.1_[A4C]_A3.1_F3.1_[A8C]_T3.1 (ssRNA)
# RNA: B11 RNA with G31C
# B15: Ib_S2_P3E.1_K3.1_C3.1_H3.1_[A4G]_A3.1_F3.1_[A8T]_T3.1 (ssRNA)
# RNA: B11 RNA with C35U
# B16: Ib_S2_P3E.1_K3.1_C3.1_H3.1_A3.1_[T5C]_F3.1_[T7C]_T3.1 (ssRNA)
# RNA: B11 RNA with G31A, U32C, U34C, C35A
# B17: Ie_S2_P3E.2_K3.1_C3.2_[+-2CTCT]_H3.1_A3.1_F3.1_T3.2 (ssRNA)
# RNA: UUUGAUUAAUAUGAUAUCGUUCUUUCUCCUCUUUGUAUAUAUAUUCUUUCUCGAUAUCAUAUUAAUCUUU
# Biological target: T1, PUF4 RNA-binding domain
# Experiment: Mg; RNA-MaP; 20 mM Na-HEPES pH 7.4, 30 mM KOAc, 0.75 mM MgCl2, 0.1% Tween-20, 5% glycerol, 0.1 mg/mL BSA, 2 mM DTT; 25 C; 0.0125-409.6 nM protein
# Settings: tags: N-His6-TEV cleaved; C-SNAP kept, Cy3B-labelled; label: tethered on chip by stalled RNA polymerase
row,Binder,Kd
1,UCUCUUUGUAUUAUUAUCCUCUCUU (ssRNA) [Ie_S1_P5E.1_K5.1_C5.1_H5.1_A5.1_F5.1_[+10TCC]_T5.1],6.07 nM
2,UCUCUUUGUAUUAUUCCUUAUCUCUU (ssRNA) [Ie_S1_P5E.1_K5.1_C5.1_H5.1_A5.1_[+7TTCC]_F5.1_T5.1],13.8 nM
3,UCUCUUUGUAUUAUUCAUCUCUU (ssRNA) [Ie_S1_P5E.1_K5.1_C5.1_H5.1_A5.1_F5.1_[+9C]_T5.1],25.3 nM
4,UCUCUUUGUAUUAUUUUCCAUCUCUU (ssRNA) [Ie_S1_P5E.1_K5.1_C5.1_H5.1_A5.1_F5.1_[+9TTCC]_T5.1],19.4 nM
5,B1,1.07 nM
6,B2,1.22 nM
7,UCUCUUUGUAUUAUCCUAUCUCUU (ssRNA) [Ie_S1_P5E.1_K5.1_C5.1_H5.1_A5.1_F5.1_[+8CC]_T5.1],26.3 nM
8,B3,1.11 nM
9,UCUCUUUGUAUUAUUUCUCUAUCUCUU (ssRNA) [Ie_S1_P5E.1_K5.1_C5.1_H5.1_A5.1_F5.1_[+9TCTCT]_T5.1],14 nM
10,UCUCUUUGUAUUAUCCCUAUCUCUU (ssRNA) [Ie_S1_P5E.1_K5.1_C5.1_H5.1_A5.1_F5.1_[+8CCC]_T5.1],33.8 nM
11,UCUCUUUGUAUUACCCUUUUAUCUCUU (ssRNA) [Ie_S1_P5E.1_K5.1_C5.1_H5.1_A5.1_[+7CCCTT]_F5.1_T5.1],143 nM
12,UCUCUUUGUAUUAUUAUCUCUUCUCUU (ssRNA) [Ie_S1_P5E.1_K5.1_C5.1_H5.1_A5.1_F5.1_[+10TCTCT]_T5.1],8.17 nM
13,B4,0.969 nM
14,B5,0.846 nM
15,B6,1.33 nM
16,B7,0.933 nM
17,B8,1.07 nM
18,B9,1.32 nM
19,B10,1.02 nM
20,UCUCUUUGUAUUAUUUCUCAUCUCUU (ssRNA) [Ie_S1_P5E.1_K5.1_C5.1_H5.1_A5.1_F5.1_[+9TCTC]_T5.1],16.3 nM
21,B11,15.7 nM
22,B12,327 nM
23,B13,473 nM
24,B14,2130 nM
25,B15,8.99 nM
26,B16,22.4 nM
27,UCUCUUUGUAUUAUUUCCAUCUCUU (ssRNA) [Ie_S1_P5E.1_K5.1_C5.1_H5.1_A5.1_F5.1_[+9TCC]_T5.1],20.4 nM

row,Binder,Kd
1,UCUCUUUGUAUUAUUCCCUUAUCUCUU (ssRNA) [Ie_S1_P5E.1_K5.1_C5.1_H5.1_A5.1_F5.1_[+9CCCTT]_T5.1],17.6 nM
2,B17,1.08 nM
3,UCUCUUUGUAUUAUUAUUCCUCUCUU (ssRNA) [Ie_S1_P5E.1_K5.1_C5.1_H5.1_A5.1_F5.1_[+10TTCC]_T5.1],4.65 nM
4,UCUCUUUGUAUUAUCCCUUAUCUCUU (ssRNA) [Ie_S1_P5E.1_K5.1_C5.1_H5.1_A5.1_F5.1_[+8CCCT]_T5.1],33.5 nM
5,UCUCUUUGUAUUACCUCUUUAUCUCUU (ssRNA) [Ie_S1_P5E.1_K5.1_C5.1_H5.1_A5.1_[+7CCTCT]_F5.1_T5.1],412 nM
6,UCUCUUUGUAUUAUUUUCCUAUCUCUU (ssRNA) [Ie_S1_P5E.1_K5.1_C5.1_H5.1_A5.1_F5.1_[+9TTCCT]_T5.1],22.3 nM
7,UCUCUUUGUAUUAUUAUUCUCUCUU (ssRNA) [Ie_S1_P5E.1_K5.1_C5.1_H5.1_A5.1_F5.1_[+10TTC]_T5.1],5.81 nM
8,UCUCUUUGUAUUAUCUCUCUAUCUCUU (ssRNA) [Ie_S1_P5E.1_K5.1_C5.1_H5.1_A5.1_F5.1_[+8CTCTC]_T5.1],21.4 nM
9,UCUCUUUGUAUUAUCCUCUUAUCUCUU (ssRNA) [Ie_S1_P5E.1_K5.1_C5.1_H5.1_A5.1_F5.1_[+8CCTCT]_T5.1],23.1 nM
10,UCUCUUUGUAUUAUUUCUAUCUCUU (ssRNA) [Ie_S1_P5E.1_K5.1_C5.1_H5.1_A5.1_F5.1_[+8TTC]_T5.1],18.2 nM
11,UCUCUUUGUAUUAUUUCCUUAUCUCUU (ssRNA) [Ie_S1_P5E.1_K5.1_C5.1_H5.1_A5.1_F5.1_[+8TTCCT]_T5.1],17.1 nM
12,UCUCUUUGUAUUAUUUCCUAUCUCUU (ssRNA) [Ie_S1_P5E.1_K5.1_C5.1_H5.1_A5.1_F5.1_[+8TTCC]_T5.1],15 nM
13,UCUCUUUGUAUUAUUCCUUUAUCUCUU (ssRNA) [Ie_S1_P5E.1_K5.1_C5.1_H5.1_A5.1_[+7TTCCT]_F5.1_T5.1],16.7 nM
14,UCUCUUUGUAUUAUUCCUCUAUCUCUU (ssRNA) [Ie_S1_P5E.1_K5.1_C5.1_H5.1_A5.1_F5.1_[+9CCTCT]_T5.1],14.3 nM
15,UCUCUUUGUAUUAUUCUAUCUCUU (ssRNA) [Ie_S1_P5E.1_K5.1_C5.1_H5.1_A5.1_F5.1_[+8TC]_T5.1],19.9 nM
16,UCUCUUUGUAUUAUUAUUUCUCUU (ssRNA) [Ie_S1_P5E.1_K5.1_C5.1_H5.1_A5.1_F5.1_[+10TT]_T5.1],6.42 nM
17,UCUCUUUGUAUUAUUAUCUCUCUU (ssRNA) [Ie_S1_P5E.1_K5.1_C5.1_H5.1_A5.1_F5.1_[+10TC]_T5.1],4.34 nM
18,UCUCUUUGUAUUAUCCCUUUAUCUCUU (ssRNA) [Ie_S1_P5E.1_K5.1_C5.1_H5.1_A5.1_F5.1_[+8CCCTT]_T5.1],23.1 nM
19,UCUCUUUGUAUUAUUCCCUAUCUCUU (ssRNA) [Ie_S1_P5E.1_K5.1_C5.1_H5.1_A5.1_F5.1_[+9CCCT]_T5.1],16.2 nM
20,UCUCUUUGUAUUAUUCUCUUAUCUCUU (ssRNA) [Ie_S1_P5E.1_K5.1_C5.1_H5.1_A5.1_F5.1_[+8TCTCT]_T5.1],16.8 nM
21,UCUCUUUGUAUUAUUCUCUAUCUCUU (ssRNA) [Ie_S1_P5E.1_K5.1_C5.1_H5.1_A5.1_F5.1_[+8TCTC]_T5.1],17.8 nM
22,UCUCUUUGUAUUAUUCCUAUCUCUU (ssRNA) [Ie_S1_P5E.1_K5.1_C5.1_H5.1_A5.1_F5.1_[+9CCT]_T5.1],25.5 nM
23,UCUCUUUGUAUUACCCUUUAUCUCUU (ssRNA) [Ie_S1_P5E.1_K5.1_C5.1_H5.1_A5.1_[+7CCCT]_F5.1_T5.1],304 nM
24,UCUCUUUGUAUUAUCCUCUAUCUCUU (ssRNA) [Ie_S1_P5E.1_K5.1_C5.1_H5.1_A5.1_F5.1_[+8CCTC]_T5.1],31.9 nM
25,UCUCUUUGUAUUAUCUCUUUAUCUCUU (ssRNA) [Ie_S1_P5E.1_K5.1_C5.1_H5.1_A5.1_[+7TCTCT]_F5.1_T5.1],40.6 nM
26,UCUCUUUGUAUUAUCUCUAUCUCUU (ssRNA) [Ie_S1_P5E.1_K5.1_C5.1_H5.1_A5.1_F5.1_[+8CTC]_T5.1],28.6 nM
